Experimental data published in US8927007B2, “Formulations for treatment with glucosinolates” (priority 2010, dated 2015).

Columns and labels:
[1] = Long-term stability of myrosinase on Concanavalin A-Sepharose gels; format: physicochemical
Method: Con-A gel (1 ml) was packed in a 3 ml syringe, washed with 5 portions of 5 ml of 10 mM midazole, 1 mD EDTA, 1 mM DTT, 30% glycerol, pH 6.0. Subsequently, 10 ml of purified myrosinase (2.9 units/ml) (from 7 day-old daikon sprouts as described in Shikita et al. Biochem J. (1999) 341:725-732) were applied to the column and the effluent collected and reapplied to the column 3 more times until no activity was detected in the effluent. After washing 5 times with 5 ml of 33 mM potassium phosphate buffer (pH 6.0), 1 mM EDTA, and 0.5 mM ascorbate, the gel was transferred to a 10 ml syringe and mixed with 10 ml of 10 mM sinigrin in 33 mM potassium phosphate buffer. Aliquots (20 μl of the solution was withdrawn from the mixture every 30 sec., diluted with 0.98 ml of the 33 mM phosphate buffer, and the absorbance was measured at 227 nm against the same buffer. […]

[2] = Activity of myrosinase immobilized on Concanavalin A-Sepharose gel (sinigrin hydrolysis, absorbance at 227 nm); format: biochemical
Method: Con-A gel (1 ml) was packed in a 3 ml syringe, washed with 5 portions of 5 ml of 10 mM midazole, 1 mD EDTA, 1 mM DTT, 30% glycerol, pH 6.0. Subsequently, 10 ml of purified myrosinase (2.9 units/ml) (from 7 day-old daikon sprouts as described in Shikita et al. Biochem J. (1999) 341:725-732) were applied to the column and the effluent collected and reapplied to the column 3 more times until no activity was detected in the effluent. After washing 5 times with 5 ml of 33 mM potassium phosphate buffer (pH 6.0), 1 mM EDTA, and 0.5 mM ascorbate, the gel was transferred to a 10 ml syringe and mixed with 10 ml of 10 mM sinigrin in 33 mM potassium phosphate buffer. Aliquots (20 μl of the solution was withdrawn from the mixture every 30 sec., diluted with 0.98 ml of the 33 mM phosphate buffer, and the absorbance was measured at 227 nm against the same buffer. After 10 collections (5 min), the gel was washed with 3 portions of 5 ml of 33 mM potassium phosphate buffer, and 3 portions of 5 ml 10 mM midazole, 1 mM EDTA, 1 mD DTT, 30% glycerol, pH 6.0, and stored at 4° C. for the next test.

Substance: myrosinase (β-thioglucoside glucohydrolase) [Immobilized enzyme]
- stability without refrigeration ([1]; immobilized on Con-A gels, without refrigeration): stable indefinitely
- changes of activity on storage ([1]; over at least the next 7 days, kept at 4° C. in 20% glycerol): no significant changes of activity
- stability of immobilized enzyme at room temperature ([1]; room temperature, period of several weeks): stable
- elution of the enzyme from the column ([1]; under conditions required for hydrolysis): no significant elution
- sinigrin hydrolyzed ([2]; immobilized on Con-A gel, 10 ml of 10 mM sinigrin in 33 mM potassium phosphate buffer, 10 collections (5 min)): more than 25 μmol
- enzymatic activity when immobilized on Con-A gels ([2]; immobilized on Con-A gels): retain its enzymatic activity
